B1: Uncharacterized protein TRE1 (Saccharomyces cerevisiae), Q08919 (parent)
chain: MVNTRGYTTLPNVEEPANNSQDELNSQDFEQAIGMPSEPPVYVEEMGMEEPQAPEAFSEKVQRFRMCFENNVVIPVKKNVVDPLAQMISLASEKFDLFLSKIGNVMVMRRIFYIMMMSIIAALIIASDRLPNGKARGSNGSFSDHDLLLQYARKSIDLSKIERDLEYISSMPHMSGTSGDAAIRHYIKESFDKNGIRLAGEEEFMAYSNYPGNVSLRVYSKDDTEGFDIPLNEENFNPMSHNGQLNNIPVIYANKASLDDMASMQDQGLLNGDFILLVHYGDYVFQQMLTAQEYGAKAIIFISEPYQDNKDVIQMKSVALPQYGTGDALTPEWEGSIRDPIDATEAKCLPKIPSIPISANQGDKILAILSDTGVKFSNNLFSGSLNDCRLDLLVQTAIRERHPVHDIVGKIEGSEQAGRAIVIAAPRNSASYGTMYPSFGTVVLLSLIQLYQEMVYKFDWKPLRNIYFISFGGSEFNEAGATELMEKRTEALKSEIYTIIDVGQIGIWDDSNNLEIQCHPLLVDLFQKNMTSRKFNVKVDNVHQFGDWTPYLAQGIPVAIISSPGVMNREHPIYTVEDKFDFIKDKLRDKKKGEVLSEIMLYLVEKSLELIDDPFIPFSISNYVDFLSTTLKDLQKECPDTVNFDEVFLGTTLWENTKLQFEKWKSEWTELMYGAGTYIEPTIIAINRWSWNYLLSLIGVTQCLEEGLMDRTFYKNVIFGPKLWVDKGDPLRSWTFPEIRDTIAIKDWSSVQVQANTLGTILQNTARYFLENKNLHGINTNEF

Variants of: B1
Conditions: with rsp5_yeast RSP5, P39940
rsp5_yeast RSP5, P39940, sequence (P39940 whole entry): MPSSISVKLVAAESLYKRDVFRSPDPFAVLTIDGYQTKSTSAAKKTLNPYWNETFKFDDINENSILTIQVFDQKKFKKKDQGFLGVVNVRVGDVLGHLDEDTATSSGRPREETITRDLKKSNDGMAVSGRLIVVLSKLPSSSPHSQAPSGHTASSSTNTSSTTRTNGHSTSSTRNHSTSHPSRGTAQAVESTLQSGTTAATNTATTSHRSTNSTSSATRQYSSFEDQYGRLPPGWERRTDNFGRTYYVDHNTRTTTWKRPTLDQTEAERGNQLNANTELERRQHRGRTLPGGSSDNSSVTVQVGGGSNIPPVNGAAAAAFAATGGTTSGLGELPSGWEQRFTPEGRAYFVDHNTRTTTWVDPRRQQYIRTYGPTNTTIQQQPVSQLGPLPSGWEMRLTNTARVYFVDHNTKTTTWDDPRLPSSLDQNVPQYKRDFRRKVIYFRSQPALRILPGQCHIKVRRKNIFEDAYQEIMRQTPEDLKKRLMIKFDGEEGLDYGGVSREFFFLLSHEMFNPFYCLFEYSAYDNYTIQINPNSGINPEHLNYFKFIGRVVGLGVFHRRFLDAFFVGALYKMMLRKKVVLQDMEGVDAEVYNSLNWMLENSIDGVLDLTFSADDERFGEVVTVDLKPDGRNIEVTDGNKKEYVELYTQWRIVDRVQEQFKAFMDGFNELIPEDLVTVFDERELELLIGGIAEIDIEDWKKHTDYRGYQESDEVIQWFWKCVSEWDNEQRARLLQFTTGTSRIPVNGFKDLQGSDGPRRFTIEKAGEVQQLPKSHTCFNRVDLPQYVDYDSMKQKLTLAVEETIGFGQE

effect of a mutation on the interaction	Variant
disrupting interaction	V41A
disrupting interaction	Y42G

Variants of: B1
Conditions: with rsp5_yeast RSP5, P39940
Remark: another data set of the same source

effect of a mutation on the interaction	Variant
decreasing interaction	Y42G
